Residue numbers refer to the chain shown, from its start.
B1: FIT1007-12B-5 (bispecific antibody, human IgG1, kappa, L234A L235A)
chain 1: not shown
chain 2: EVQLVQSGAEVKKPGSSVKVSCKASGYTFSRSWMNWVRQAPGQGLEWIGRIYPGNGDIKYNGNFKGRATITADKSTSTAYMELSSLRSEDTAVYYCAHIYYDFYYALDYWGQGTTVTVSSASTKGPSVFPLAPSSKSTSGGTAALGCLVKDYFPEPVTVSWNSGALTSGVHTFPAVLQSSGLYSLSSVVTVPSSSLGTQTYICNVNHKPSNTKVDKKVEPKSC
chain 3: not shown
notes: ROR1xCD3 FIT-Ig, same build as FIT1007-12B-1, no linkers
B2: FIT1007-12B-10 (bispecific antibody, human IgG1, kappa, L234A L235A)
chain 1: not shown
chain 2: B1 chain 2 with I48M, A68V
chain 3: not shown
notes: as for B1
B3: FIT1007-12B-11 (bispecific antibody, human IgG1, kappa, L234A L235A)
chain 1: not shown
chain 2: B1 chain 2
chain 3: not shown
notes: as for B1
B4: FIT1007-12B-1 (bispecific antibody, human IgG1, kappa, L234A L235A)
chain 1: not shown
chain 2: B1 chain 2 with I48M, A68V
chain 3: not shown
notes: ROR1xCD3 FIT-Ig, chain #1 VL(ROR1)-CL-VH(CD3)-CH1-hinge-CH2-CH3, chain #2 VH(ROR1)-CH1, chain #3 VL(CD3)-CL, no linkers
B5: FIT1007-12B-7 (bispecific antibody, human IgG1, kappa, L234A L235A)
chain 1: not shown
chain 2: B1 chain 2 with I48M, A68V
chain 3: not shown
notes: as for B1
B6: FIT1007-12B-12 (bispecific antibody, human IgG1, kappa, L234A L235A)
chain 1: not shown
chain 2: B1 chain 2 with R38K, R67K
chain 3: not shown
notes: as for B1
B7: FIT1007-12B-9 (bispecific antibody, human IgG1, kappa, L234A L235A)
chain 1: not shown
chain 2: B1 chain 2 with R38K, R67K
chain 3: not shown
notes: as for B1
B8: FIT1007-12B-4 (bispecific antibody, human IgG1, kappa, L234A L235A)
chain 1: not shown
chain 2: B1 chain 2 with I48M, A68V
chain 3: not shown
notes: as for B1
B9: FIT1007-12B-6 (bispecific antibody, human IgG1, kappa, L234A L235A)
chain 1: not shown
chain 2: B1 chain 2 with R38K, R67K
chain 3: not shown
notes: as for B1
B10: FIT1007-12B-3 (bispecific antibody, human IgG1, kappa, L234A L235A)
chain 1: not shown
chain 2: B1 chain 2 with R38K, R67K
chain 3: not shown
notes: as for B1
B11: FIT1007-12B-8 (bispecific antibody, human IgG1, kappa, L234A L235A)
chain 1: not shown
chain 2: B1 chain 2
chain 3: not shown
notes: as for B1
B12: FIT1007-12B-2 (bispecific antibody, human IgG1, kappa, L234A L235A)
chain 1: not shown
chain 2: B1 chain 2
chain 3: not shown
notes: as for B1
B13: ROR1-Tab2 (antibody, V domains shown)
VH: QVQLKESGPGLVAPSQTLSITCTVSGFSLTSYGVHWVRQPPGKGLEWLGVIWAGGFTNYNSALKSRLSISKDNSKSQVLLKMTSLQTDDTAMYYCARRGSSYSMDYWGQGTSVTVSS
VL: EIVLSQSPAITAASLGQKVTITCSASSNVSYIHWYQQRSGTSPRPWIYEISKLASGVPVRFSGSGSGTSYSLTISSMEAEDAAIYYCQQWNYPLITFGSGTKLEIQ
notes: also called clone D10; D10 as described in WO2012097313
B14: HuEM0006-01-24 (antibody, V domains shown)
VH: EVQLVQSGAEVKKPGASVKVSCKASGFSFTNYYVHWMRQAPGQGLEWMGWISPGSDNTKYNEKFKGRVTMTRDTSISTAYMELSRLRSDDTAVYYCARDDYGNYYFDYWGQGTTVTVSS
VL: DIVMTQSPDSLAVSLGERATINCKSSQSLLNARTRKNYLAWYQQKPGQPPKLLIYWASTRESGVPDRFSGSGSGTDFTLTISSLQAEDVAVYYCKQSYILRTFGGGTKVEIK
notes: only the variable domains are tied to it; also called HuEM1006-01-24
B15: HuEM0006-01-27 (antibody, V domains shown)
VH: B14 VH with M48I, M70L, R72A
VL: B14 VL
notes: only the variable domains are tied to it; also called HuEM1006-01-27
B16: R12 x CD3 FIT-Ig (bispecific antibody, human IgG1, kappa, lambda, L234A L235A)
chain 1: not shown
chain 2: QEQLVESGGRLVTPGGSLTLSCKASGFDFSAYYMSWVRQAPGKGLEWIATIYPSSGKTYYATWVNGRFTISSDNAQNTVDLQMNSLTAADRATYFCARDSYADDGALFNIWGPGTLVTISSASTKGPSVFPLAPSSKSTSGGTAALGCLVKDYFPEPVTVSWNSGALTSGVHTFPAVLQSSGLYSLSSVVTVPSSSLGTQTYICNVNHKPSNTKVDKKVEPKSC
chain 3: not shown
B17: FIT1007-12B-13 (bispecific antibody, human IgG1, kappa, L234A L235A)
chain 1: not shown
chain 2: QVQLQQSGPELVKPGASVKISCKASGYAFSRSWMNWVKQRPEKGLEWIGRIYPGNADIKYNANFKGKATLTADKSSSTAYMQLSSLTSEDSAVYFCAHIYYDFYYALDYWGQGTSVTVSSASTKGPSVFPLAPSSKSTSGGTAALGCLVKDYFPEPVTVSWNSGALTSGVHTFPAVLQSSGLYSLSSVVTVPSSSLGTQTYICNVNHKPSNTKVDKKVEPKSC
chain 3: not shown
notes: Chimeric ROR1 arm with CDR-H2 point mutations (AA); ROR1xCD3 FIT-Ig, no linkers
B18: FIT1007-12B-16 (bispecific antibody, human IgG1, kappa, L234A L235A)
chain 1: not shown
chain 2: B17 chain 2 with N55Q, A56G
chain 3: not shown
notes: Chimeric ROR1 arm with CDR-H2 point mutations (QA); ROR1xCD3 FIT-Ig, no linkers
B19: D10 x CD3 FIT-Ig (bispecific antibody, human IgG1, kappa, L234A L235A)
chain 1: not shown
chain 2: QVQLKESGPGLVAPSQTLSITCTVSGFSLTSYGVHWVRQPPGKGLEWLGVIWAGGFTNYNSALKSRLSISKDNSKSQVLLKMTSLQTDDTAMYYCARRGSSYSMDYWGQGTSVTVSSASTKGPSVFPLAPSSKSTSGGTAALGCLVKDYFPEPVTVSWNSGALTSGVHTFPAVLQSSGLYSLSSVVTVPSSSLGTQTYICNVNHKPSNTKVDKKVEPKSC
chain 3: not shown

Key:
[1] = molecular target: T1, recombinant human ROR1-ECD protein (human, UniProt Q01973 30-406); experiment: BLI (Octet RED96), FIT-Ig captured on anti-hIgG Fc sensors, ROR1 ECD at 10 ug/ml; off-rate relative to FIT1007-12B
T1 construct: also called human ROR1 extracellular domain
T1 sequence (Q01973 30-406): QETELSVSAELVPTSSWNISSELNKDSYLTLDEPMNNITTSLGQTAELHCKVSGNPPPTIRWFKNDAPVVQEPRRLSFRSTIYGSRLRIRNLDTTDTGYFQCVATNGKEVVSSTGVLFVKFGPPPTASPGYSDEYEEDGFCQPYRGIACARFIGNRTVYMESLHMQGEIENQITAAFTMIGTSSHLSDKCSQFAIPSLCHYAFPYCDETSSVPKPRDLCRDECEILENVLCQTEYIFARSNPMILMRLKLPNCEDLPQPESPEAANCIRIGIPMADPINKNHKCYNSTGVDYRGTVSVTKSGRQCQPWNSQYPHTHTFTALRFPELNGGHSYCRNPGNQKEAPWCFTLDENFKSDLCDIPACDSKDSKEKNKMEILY
Description: The ROR1/CD3 FIT-Ig proteins were assayed for and ranked by dissociation rate constant (koff, “off-rate”) using an Octet®RED96 biolayer interferometry (Pall FortéBio LLC). Anti-hIgG Fc Capture (AHC) Biosensors (Pall) were first exposed to antibody at a concentration of 100 nM for 30 seconds to capture antibody, then dipped into running buffer (1× pH 7.2 PBS, 0.05% Tween 20, 0.1% BSA) for 60 seconds to check baseline. Sensors with captured antibody were dipped into recombinant human ROR1 ECD protein at 10 ug/ml for 5 minutes to measure association, followed by dipped into running buffer for 1200 seconds to measure dissociation. The association and dissociation curves were fitted to a 1:1 Langmuir binding model using ForteBio Data Analysis software (Pall). The off-rate ratios were calculated by the off-rate of antibody to that of FIT1007-12B. Lower ratio indicates slower dissociation of the antibody in comparison with the parental chimeric antibody FIT1007-12B.

[2] = molecular target: T1, recombinant human ROR1-ECD protein; experiment: BLI (Octet RED96), antibody captured on anti-mouse IgG Fc sensors, ROR1-ECD in solution, 25 C, 1:1 fit
Description: Briefly, Anti-Mouse IgG Fc Capture (AMC) Biosensors were used to capture purified anti-ROR1 antibodies. Sensors were then dipped into solutions containing recombinant human ROR1-ECD protein to detect target protein binding to the captured antibodies. Kinetics constants were determined by processing and fitting data to a 1:1 binding model using Fortebio analysis software. Shown below in Table 2 are the results obtained for ROR1-mAb004 in comparison with two previously described anti-ROR1 monoclonal antibodies, ROR1-Tab1 is clone R12 as described in WO2014167022, and ROR1-Tab2 is clone D10 as described in WO2012097313.

[3] = molecular target: T1, recombinant human ROR1-ECD protein; experiment: competition ELISA: biotinylated ROR1-ECD pre-mixed with the row's antibody; competitor coated on the plate: ROR1-Tab1
Description: (§1) The binding epitope of ROR1 antibodies were identified with a competition ELISA. Briefly, 96 well plates were coated with 1 ug/mL purified antibodies and incubated overnight at 4° C. After washing with PBS containing 0.05% Tween 20, plates were blocked with blocking buffer (PBS containing 0.05% Tween 20 and 2% BSA) at 37° C. for 2 hours. Biotinylated human ROR1-ECD protein pre-mixed with ROR1 antibody (sample) or irrelevant mouse IgG (baseline) was added into plate wells and incubated at 37° C. for 1 hour before being washed 3 times. Streptavidin-HRP (1:5000 dilution) was then added into each well and incubated at 37° C. for 1 hour before being washed another 3 times. Tetramethylbenzidine (TMB) chromogenic solution was added for color development for 5 minutes then the reaction was stopped with 1M HCl. Absorbance at 450 nm (OD₄₅₀) was measured on a microplate reader. The OD450baseline represents the level of human ROR1-ECD binding to ROR1 antibodies at absence of competition, while the difference between OD450baseline and OD450ₛₐₘₚₗₑ reflects the competition between the ROR1 antibody coated on plate and the antibody in solution. The inhibition percentage was calculated by following equation: […]

[4] = molecular target: T1, recombinant human ROR1-ECD protein; experiment: competition ELISA: biotinylated ROR1-ECD pre-mixed with the row's antibody; competitor coated on the plate: ROR1-Tab2
Description: as §1

[5] = molecular target: T1, recombinant human ROR1-ECD protein; experiment: competition ELISA: biotinylated ROR1-ECD pre-mixed with the row's antibody; competitor coated on the plate: ROR1-mAb004
Description: as §1

human CD3 on cells = molecular target: T2, human CD3 on cells (human, UniProt P07766 23-207; P04234 22-171; P09693 23-182; P20963 22-164); experiment: flow cytometry on CHO-CD3-TCR cells, MFI
T2 construct: the cell line is named under assay; also called human TCR/CD3 complex; CHO-CD3-TCR
T2 sequence (P07766 23-207 limits assumed, chain 1 of 4): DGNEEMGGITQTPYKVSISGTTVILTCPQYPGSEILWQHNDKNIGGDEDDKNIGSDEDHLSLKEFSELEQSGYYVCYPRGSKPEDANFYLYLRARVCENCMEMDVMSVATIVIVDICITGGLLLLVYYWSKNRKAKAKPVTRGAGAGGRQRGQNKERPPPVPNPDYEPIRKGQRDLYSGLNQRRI
T2 sequence (P04234 22-171 limits assumed, chain 2 of 4): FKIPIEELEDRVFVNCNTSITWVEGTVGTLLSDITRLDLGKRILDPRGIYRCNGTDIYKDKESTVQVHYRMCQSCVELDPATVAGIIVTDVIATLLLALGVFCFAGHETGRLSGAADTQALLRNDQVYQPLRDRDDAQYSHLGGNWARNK
T2 sequence (P09693 23-182 limits assumed, chain 3 of 4): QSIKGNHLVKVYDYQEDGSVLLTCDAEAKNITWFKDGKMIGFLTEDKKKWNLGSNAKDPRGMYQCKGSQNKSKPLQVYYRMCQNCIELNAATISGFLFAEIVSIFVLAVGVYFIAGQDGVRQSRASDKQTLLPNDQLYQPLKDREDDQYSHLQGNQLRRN
T2 sequence (P20963 22-164 limits assumed, chain 4 of 4): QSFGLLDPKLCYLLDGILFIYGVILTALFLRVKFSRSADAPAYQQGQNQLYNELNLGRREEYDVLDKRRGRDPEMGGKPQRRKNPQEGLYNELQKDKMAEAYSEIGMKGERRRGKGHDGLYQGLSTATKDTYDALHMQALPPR
Description: Briefly, 5×10⁵ cells were seeded into each well of a 96-well plate. Cells were centrifuged at 400 g for 5 minutes and supernatants were discarded. For each well, […] of serially diluted antibodies were then added and mixed with the cells. After 40 minutes of incubation at 4° C., plates were washed several times to remove excess antibodies. Secondary fluorochrome-conjugated goat anti-human IgG antibody was then added and incubated with cells at room temperature for 20 minutes. After another round of centrifugation and a washing step, cells were resuspended in FACS buffer for reading on a CytoFLEX Flow Cytometer (Beckman Coulter). Median Fluorescence Intensity (MFI) readouts were plotted against antibody concentration and analyzed with GraphPad Prism 6.0 software.

human ROR1 on cells = molecular target: T3, human ROR1 on cells (human, UniProt Q01973 30-937); experiment: flow cytometry on MDA-MB-231 cells, MFI
T3 construct: whole, on cells; the cell line is named under assay; also called CHO-ROR1; CHOK1-ROR1
T3 sequence (Q01973 30-937): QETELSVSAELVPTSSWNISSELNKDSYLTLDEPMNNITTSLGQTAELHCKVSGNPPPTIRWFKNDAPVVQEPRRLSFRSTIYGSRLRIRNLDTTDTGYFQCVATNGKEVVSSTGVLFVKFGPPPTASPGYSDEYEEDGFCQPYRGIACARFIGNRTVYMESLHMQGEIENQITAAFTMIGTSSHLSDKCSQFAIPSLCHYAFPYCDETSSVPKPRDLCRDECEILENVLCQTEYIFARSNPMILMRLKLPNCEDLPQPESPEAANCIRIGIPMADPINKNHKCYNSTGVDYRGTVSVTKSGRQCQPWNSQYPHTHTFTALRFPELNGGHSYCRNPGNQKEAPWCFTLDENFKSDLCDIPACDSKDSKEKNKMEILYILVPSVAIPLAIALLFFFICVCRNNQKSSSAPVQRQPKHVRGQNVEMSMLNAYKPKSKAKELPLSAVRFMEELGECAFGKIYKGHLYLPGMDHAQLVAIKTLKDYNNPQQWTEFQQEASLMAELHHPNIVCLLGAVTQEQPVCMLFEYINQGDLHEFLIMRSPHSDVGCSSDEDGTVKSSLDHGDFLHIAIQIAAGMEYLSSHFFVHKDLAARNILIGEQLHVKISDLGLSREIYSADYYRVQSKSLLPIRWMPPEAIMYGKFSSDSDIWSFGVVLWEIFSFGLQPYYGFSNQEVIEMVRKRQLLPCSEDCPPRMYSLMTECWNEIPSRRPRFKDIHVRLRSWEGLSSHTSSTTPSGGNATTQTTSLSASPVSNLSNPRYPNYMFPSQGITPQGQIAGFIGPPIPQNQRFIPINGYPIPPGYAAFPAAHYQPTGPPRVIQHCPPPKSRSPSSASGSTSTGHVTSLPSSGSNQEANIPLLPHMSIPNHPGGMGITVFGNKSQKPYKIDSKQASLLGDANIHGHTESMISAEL

Binder	Off-rate Ratio [1] [%]	also measured
B1	28.5	–
B2	36.7	–
B3	28.9	–
B4	5.25	–
B5	13.6	–
B6	25.2	–
B7	12	–
B8	35.9	–
B9	25.8	–
B10	11.9	–
B11	15.4	–
B12	7.87	–
B13	–	Kd [2]: 98.8 nM; koff [2]: 0.0321 s⁻¹; kon [2]: 325000 M⁻¹ s⁻¹; Inhibition % [3]: -21%; Inhibition % [4]: 92%; Inhibition % [5]: 56%
B14	–	EC50 (read off the curve) (human CD3 on cells): ~0.3 nM
B15	–	EC50 (read off the curve) (human CD3 on cells): ~2 nM
B16	–	EC50 (read off the curve) (human ROR1 on cells): ~0.4 nM
B17	89.1	–
B18	139	–
B19	–	EC50 (read off the curve) (human ROR1 on cells): ~0.5 nM

Reference: patent US20240010753A1 (EPIMAB BIOTHERAPEUTICS HK, published 2024)
